We go through 2 molecules from US20180201670A1 (published 2018).

Experiment [1] deals with T1, analyte of Example 8 (not named).
T1 construct: Target of the Biacore run of Hu-6C1-H3bL2
The experiment in a line: Biacore (SPR); analyte not named. (In general: SPR reads the build-up and loss of mass on a sensor chip optically.)

Experiment [2] addresses T2, pH4-treated TTR (human, UniProt P02766 21-147). The experiment can be described thus: Sandwich ELISA (pH 4-TTR). On the technique in general: An ELISA detects its analyte on a solid surface through an enzyme-linked reagent.
In experiment [3] the target is T2, pH4-treated TTR. The experiment can be described thus: ELISA; pH4-TTR captured on anti-His-coated plate, mAb 0.31-2.5 µg/ml. As to the method:
Four lead mis-TTR mAbs (9D5, 14G8, 6C1, and 5A1) were assayed by ELISA at concentrations ranging from 0.31 to 2.5 μg/ml using both pH4.0-treated TTR (pH4-TTR) and native TTR as the coating antigen. TTR antigen preparation and ELISA protocols are described elsewhere in Materials and Methods (e-g).
Coated and blocked 96-well plates were treated with 50 μl per well of 2.5 μg/ml TTR antigen (either native TTR or pH4-TTR) for 1 hr. at room temperature. The plates were then washed two times with 250 μl per well of wash buffer (1× Tris Buffered Saline containing 0.05% Tween-20). Washed plates were then treated with 50 μl per well of the appropriate anti-TTR monoclonal antibody at concentrations ranging from of 0.31 to 2.5 μg/ml, for 1 hr.
The treated plates were washed 3 times with 250 μl perwell wash buffer. After washing, the plates were treated for 1 hr. with 50 μl per well of detection antibody comprising a 1:5,000 dilution of […] goat-anti-mouse (Jackson ImmunoResearch #115-035-164) in 1×PBS. The plate was then washed 3 times prior to the addition of 100 μl per well TMB substrate (Rockland). The HRP reaction was allowed to proceed at room temperature for 15 min. before quenching with a 50 μl per well volume of 1N […]. Spectroscopic absorbance was measured at a wavelength of 450 nm.

B1: Hu-6C1-H3bL2 (antibody, human IgG1, kappa, V domains shown)
VH: EVQLVESGGGLVQPGGSLKLSCAASGFTFSNYYMSWVRQAPGKRLEWVAYISIDGNNIYHPDSVKGRFTISRDNAKNTLYLQMNSLKAEDTAMYYCARDSDYGYFDVWGQGTLVTVSS
VL: DIVMTQTPLSLPVTPGEPASISCRSSQSIVHSNGNTYLEWYLQKPGQSPKLLIYKVSKRFSGVPDRFSGSGSGTDFTLKISRVEAEDVGVYYCFQGSHVPLTFGGGTKVEIKR
notes: also called Hu6C1VHv3b/VLv2; humanized 6C1 heavy chain version 3b / light chain version 2
The Kd is the concentration at which binding is half-saturated. Higher therefore signals a looser complex. One may read the koff as a measure of how fast the partners let go of each other. What is called kon is the second-order rate constant of association. A lower kon goes with slow association. Take B1: in experiment [1], binding was characterised by a dissociation constant (Kd) of 1.46 nM, the koff amounted to 0.000545 s⁻¹ and the kon was determined as 372000 M⁻¹ s⁻¹.

B2: 9D5 (antibody, V domains shown)
VH: EVKLVESGGGLVQPGGSLKLSCAASGFTFSSYTMSWVRQTPEKRLELVAEISNSGDTTYYPDTVKGRFTFSRDNAKNTLYLQMSSLKSEDTAMYYCARHYYYGGGYGGWFFDVWGTGTTVTVSS
VL: DIVMTQAAPSVPVTPGESVSISCRSSKSLLHSNGNTYLYWFLQRPGQSPQLLIYRVSNLASGVPDRFSGSGSGTAFTLRISRVEAEDVGVYYCMQHLEYPLTFGAGTKLELK
As to B2, the values for the dissociation constant Kd with pH4-treated TTR [2] and with pH4-treated TTR [3] were 257 nM and 282 nM, respectively.
